Molecules are shown by their SMILES.

A short description of data set [1]: DTPA challenge (transmetallation) of ^225Ac-crown-αMSH on HPLC. It is filed as physicochemical. The following applies: addition of 1000 eq. of DTPA, in 7 hours.
A short description of the next data set: in vivo. Also noted: species or system mice. The following applies: male, C57BL/6J, mouse, iv, total radioactivity. As for the experimental part: The inventors performed an in vivo evaluation to establish the biodistribution profile of ^225Ac-crown-αMSH in B16F10 tumor bearing mice. The B16F10 cell line (Mus musculus) was obtained commercially from ATCC (CRL-6475), and confirmed pathogen-free using the IMPACT 1 mouse profile (IDEXX BioResearch). The cells were cultured in DMEM media (StemCell Technologies) supplemented with 10% FBS, 100 U/mL penicillin and 100 µg/mL streptomycin at 37° C. in a humidified incubator containing 5% CO2. All animal experiments were conducted according to the guidelines established by Canadian Council on Animal Care and approved by Animal Ethics Committee of the University of British Columbia (UBC). Male C57BL/6J mice were acquired in-house and kept under pathogen-free conditions in the Animal Resource Centre at the BC Cancer Research Centre. The mice were anesthetised by inhalation of 2% isoflurane in 2 L/min oxygen, and 1 x10^6 B16F10 cells were inoculated subcutaneously at right flank. Two to four days after inoculation, the mice were transferred to the UBC Centre of Comparative Medicine, where biodistribution studies were performed once the tumors reached 8-10 mm. At the day of biodistribution mice were injected in the tail vein with ~20 kBq of ^225Accrown-αMSH (range: 10.8-31.6 kBq). After injection mice were allowed to roam freely in their cages, and they were euthanized in groups of 4 at 2 hours post injection by CO2 asphyxiation under isoflurane anesthesia. Blood was collected by cardiac puncture and a full biodistribution performed. Organs were cleaned from blood, weighed and the activity determined using a calibrated gamma counter (Packard Cobra II Auto-gamma counter, Perkin Elmer, Waltham, MA, USA) using three energy windows: 60-120 keV (window A), 180-260 keV (window B), and 400-480 keV (window C). Counting was performed after 6 hours post-sacrifice to ensure equilibrium of the ^225Ac decay chain. Counts were decay corrected from the time of sacrifice and total organ weights were used for the calculation of injected dose per gram of tissue (% ID/g). No differences were noted between the data calculated by three different windows; therefore, the biodistributions are reported using the data acquired using window A. The inventors evaluated biodistribution of ^225Ac-crown-αMSH in mice bearing B16F10 tumors at 2 h post-injection (p.i.) in two separate studies using a total of 5 groups of mice (Table 3). In the first study, three conditions were evaluated: ^225Ac-crown-αMSH prepared the day before (18 h) (A, FIG. 22, right bars), same day (4 h) (B), or same day (4 h) with Sep-Pak purification (C); in the second study the inventors compared 225Ac-crown-αMSH labelled 4 hours before with Sep-Pak purification and with the introduction of 0.1 M L-ascorbate (D, FIG. 22, left bars), or ^225Ac-crown-αMSH prepared 18 hours prior with L-ascorbate (E).

Turning to `CCCC[C@H](NC(=O)CN1CCC(NC(=O)CN2CCOCCN(CC(=O)O)CCN(CC(=O)O)CCOCCN(CC(=O)O)CC2)CC1)C(=O)N[C@H]1CC(=O)NCCCC[C@@H](C(N)=O)NC(=O)[C@H](Cc2c[nH]c3ccccc23)NC(=O)[C@H](CCCNC(=N)N)NC(=O)[C@@H](Cc2ccccc2)NC(=O)[C@H](Cc2c[nH]cn2)NC1=O` [^225Ac-crown-αMSH, metal not drawn], the “transmetallation on HPLC” value in data set [1] turned out to be 64%. Further, the tissue uptake (commonly the percentage of the injected dose found per gram of tissue) at 2 h in “in vivo” (20 kBq, Biodistribution: Bone) was determined as 1.82 %ID/g; in the data set “in vivo” (tumor uptake), 12.7 ± 2.31 %ID/g. Also, the tissue to tissue ratio at 2 h in “in vivo” (tumor to blood ratio) amounted to 85.4 ± 46.8; in the data set “in vivo” (tumor to bone ratio), 63.5 ± 13.2; in “in vivo” (tumor to kidneys ratio), 2.8 ± 0.98.

The values are drawn from US20230270892A1, “CHELATOR COMPOSITIONS FOR RADIOMETALS AND METHODS OF USING SAME” (TRIUMF INC., priority 2020, published 2023).
